Results taken from patent US20090149339A1 (published 2009).
Ends that are not written are not given here. * marks the point of attachment. Biotin = O=C1N[C@H]2[C@H](CS[C@H]2CCCCC(=O)*)N1

What was measured:
[1] = target: T1, GST-PTN-4 PDZ domain fusion protein (protein-tyrosine phosphatase meg1 AA774-862; PDZ domain 1 of 1) (UniProt P08515 1-218 = GST); assay: G assay
[2] = target: T2, GST-RGS12 PDZ domain fusion protein (human regulator of G-protein signalling 12 AA35-103; PDZ domain 1 of 1) (human, UniProt P08515 1-218 = GST); assay: G assay
T2 construct: also called RSG12
T2 sequence (P08515 1-218, tags or fused parts left off): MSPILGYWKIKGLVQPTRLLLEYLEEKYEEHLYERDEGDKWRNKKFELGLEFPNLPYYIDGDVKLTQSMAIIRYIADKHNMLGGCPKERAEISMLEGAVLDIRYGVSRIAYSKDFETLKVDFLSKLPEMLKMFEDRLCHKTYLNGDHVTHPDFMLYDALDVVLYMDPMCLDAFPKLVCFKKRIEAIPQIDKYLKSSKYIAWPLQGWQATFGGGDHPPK

[3] = target: T3, GST-CASK PDZ domain fusion protein (CASK AA495-584; PDZ domain 1 of 1) (mouse, UniProt P08515 1-218 = GST); assay: A/G assays
T3 construct: also called mCASK
T3 sequence (P08515 1-218, tags or fused parts left off): as above

[4] = target: T4, GST-LIM PDZ domain fusion protein (Human LIM protein AA29-112; PDZ domain 1 of 1) (human, UniProt P08515 1-218 = GST); assay: A/G assays
T4 sequence (P08515 1-218, tags or fused parts left off): as above

[5] = target: GST-LIMK2 PDZ domain fusion protein (human LIM domain kinase 2 AA185-275; PDZ domain 1 of 1) (human, UniProt P08515 1-218 = GST); assay: A/G assays
Chain of GST-LIMK2 PDZ domain fusion protein (human LIM domain kinase 2 AA185-275; PDZ domain 1 of 1) (P08515 1-218, tags or fused parts left off): as above

[6] = target: T5, GST-MPP2 PDZ domain fusion protein (maguk p55 subfamily member 2 (DLG2) AA185-273; PDZ domain 1 of 1) (UniProt P08515 1-218 = GST); assay: A/G assays
T5 construct: also called MMP2
T5 sequence (P08515 1-218, tags or fused parts left off): as above

[7] = target: GST-NOS1 PDZ domain fusion protein (human neuronal nitric oxide synthase; PDZ domain 1 of 1) (human, UniProt P08515 1-218 = GST); assay: A/G assays
Chain of GST-NOS1 PDZ domain fusion protein (human neuronal nitric oxide synthase; PDZ domain 1 of 1) (P08515 1-218, tags or fused parts left off): as above

[8] = target: T6, GST-AF6 PDZ domain fusion protein (af-6 protein AA985-1077; PDZ domain 1 of 1) (UniProt P08515 1-218 = GST); assay: A/G assays
T6 sequence (P08515 1-218, tags or fused parts left off): as above

[9] = target: GST-prIL16 PDZ domain fusion protein (putative interleukin 16 precursor AA170-383; PDZ domains 1-2 of 2) (UniProt P08515 1-218 = GST); assay: A/G assays
Chain of GST-prIL16 PDZ domain fusion protein (putative interleukin 16 precursor AA170-383; PDZ domains 1-2 of 2) (P08515 1-218, tags or fused parts left off): as above

[10] = target: T7, GST-41.8 kD PDZ domain fusion protein (hypothetical 41.8 kD protein AA4-85; PDZ domain 1 of 1) (UniProt P08515 1-218 = GST); assay: A/G assays
T7 construct: also called hypoth
T7 sequence (P08515 1-218, tags or fused parts left off): as above

[11] = target: T8, GST-KIAA0559 PDZ domain fusion protein (KIAA0559 AA766-870; PDZ1 of 1) (UniProt P08515 1-218 = GST); assay: A/G assays
T8 construct: also called K559
T8 sequence (P08515 1-218, tags or fused parts left off): as above

[12] = target: T9, GST-MPP1 PDZ domain fusion protein (55 Kd erythrocyte membrane protein AA101-186; PDZ domain 1 of 1) (UniProt P08515 1-218 = GST); assay: A/G assays
T9 sequence (P08515 1-218, tags or fused parts left off): as above

[13] = target: T10, GST-KIAA0316 PDZ domain fusion protein (KIAA0316 AA197-284; PDZ domain 1 of 1) (UniProt P08515 1-218 = GST); assay: A/G assays
T10 construct: also called K316
T10 sequence (P08515 1-218, tags or fused parts left off): as above

[14] = target: GST-DVL1 PDZ domain fusion protein (human dishevelled segment polarity protein homolog AA248-340); PDZ domain … (human, UniProt P08515 1-218 = GST); assay: A/G assays
[15] = target: T11, GST-TAX40 PDZ domain fusion protein (human tax interaction protein 40 AA35-137; PDZ domain 1 of 1) (human, UniProt P08515 1-218 = GST); assay: A/G assays
T11 construct: also called TX 40
T11 sequence (P08515 1-218, tags or fused parts left off): as above

[16] = target: T12, GST-TIAM1 PDZ domain fusion protein (T-lymphoma invasion and metastasis inducing protein 1 AA1001-1088); PDZ 1 … (UniProt P08515 1-218 = GST); assay: A/G assays
T12 sequence (P08515 1-218, tags or fused parts left off): as above

[17] = target: T13, GST-KIAA0303 PDZ domain fusion protein (KIAA0303 AA652-742; PDZ domain 1 of 1) (UniProt P08515 1-218 = GST); assay: A/G assays
T13 construct: also called K303

[18] = target: T14, GST-CBP PDZ domain fusion protein (Cytohesin binding protein HE AA85-175; PDZ domain 1 of 1) (UniProt P08515 1-218 = GST); assay: A/G assays
T14 construct: also called Prot
T14 sequence (P08515 1-218, tags or fused parts left off): as above

[19] = target: GST-MINT3 PDZ domain fusion protein (human MINT3 AA11-52; PDZ domain 1 of 1) (human, UniProt P08515 1-218 = GST); assay: A/G assays
Chain of GST-MINT3 PDZ domain fusion protein (human MINT3 AA11-52; PDZ domain 1 of 1) (P08515 1-218, tags or fused parts left off): as above

[20] = target: T15, GST-TAX2 PDZ domain fusion protein (human tax interaction protein 2 AA54-140; PDZ domain 1 of 1) (human, UniProt P08515 1-218 = GST); assay: A/G assays
T15 construct: also called TX 2
T15 sequence (P08515 1-218, tags or fused parts left off): as above

[21] = target: T16, GST-PSD95 PDZ domain fusion protein (human post-synaptic density protein 95 AA387-724; PDZ domains 1-3 of 3) (human, UniProt P08515 1-218 = GST); assay: A/G assays
[22] = target: T17, GST-NeDLG PDZ domain fusion protein (presynaptic protein sao102, neuroendocrine-dlg; PDZ domains 1-2 of 3) (UniProt P08515 1-218 = GST); assay: A/G assays
T17 construct: also called NeDLG1
T17 sequence (P08515 1-218, tags or fused parts left off): as above

[23] = target: T18, GST-TAX33 PDZ domain fusion protein (tax interaction protein 33 AA73-162; PDZ domain 1 of 1) (UniProt P08515 1-218 = GST); assay: A/G assays
T18 construct: also called TX33
T18 sequence (P08515 1-218, tags or fused parts left off): as above

[24] = target: T19, GST-SYN1a PDZ domain fusion protein (alpha1-syntrophin AA96-189; PDZ domain 1 of 1) (UniProt P08515 1-218 = GST); assay: A/G assays
T19 construct: also called SYN 1 alpha; SYNTR 1 alpha
T19 sequence (P08515 1-218, tags or fused parts left off): as above

[25] = target: T20, GST-TAX43 PDZ domain fusion protein (human tax interaction protein 43 AA15-85; PDZ domain 1 of 1) (human, UniProt P08515 1-218 = GST); assay: A/G assays
T20 construct: also called TX 43
T20 sequence (P08515 1-218, tags or fused parts left off): as above

[26] = target: T4, GST-LIM PDZ domain fusion protein …; assay: A assay
[27] = target: T6, GST-AF6 PDZ domain fusion protein (af-6 …); assay: A assay
[28] = target: T7, GST-41.8 kD PDZ domain fusion protein …; assay: A assay
[29] = target: T9, GST-MPP1 PDZ domain fusion protein (55 …); assay: A assay
[30] = target: T2, GST-RGS12 PDZ domain fusion protein …; assay: A assay
[31] = target: T17, GST-NeDLG PDZ domain fusion protein …; assay: A assay
[32] = target: T5, GST-MPP2 PDZ domain fusion protein …; assay: G assay
[33] = target: T1, GST-PTN-4 PDZ domain fusion protein …; assay: A/G assays
[34] = target: T16, GST-PSD95 PDZ domain fusion protein …; assay: A and G assays
[35] = target: T12, GST-TIAM1 PDZ domain fusion protein …; assay: A assay
[36] = target: T13, GST-KIAA0303 PDZ domain fusion protein …; assay: A assay
[37] = target: T2, GST-RGS12 PDZ domain fusion protein …; assay: A/G assays

| Binder | binding result [3] | binding result [4] | binding result [5] | binding result [6] | binding result [7] | binding result [8] | binding result [9] | binding result [11] | binding result [13] | binding result [14] | binding result [15] | binding result [16] | binding result [17] | binding result [18] | binding result [19] | binding result [20] | binding result [21] | binding result [23] | binding result [24] | binding result [25] | other results |
| --- | --- | --- | --- | --- | --- | --- | --- | --- | --- | --- | --- | --- | --- | --- | --- | --- | --- | --- | --- | --- | --- |
| Biotin-EVICYIEKPGVETLEDSVF [CDW125 (IL5R) C-terminal PL peptide AA28L, biotinylated] | no binding | no binding | no binding | no binding | no binding | no binding | no binding | no binding | no binding | no binding | no binding | no binding | no binding | no binding | no binding | no binding | no binding | no binding | no binding | no binding | binding result [1]: binds; binding result [2]: binds; binding result [10]: no binding; binding result [12]: no binding; binding result [22]: no binding |
| Biotin-TREDIYVNYPTFSRRPKTRV [DNAM-1 C-terminal PL peptide AA22L, biotinylated] | no binding | – | no binding | – | no binding | – | no binding | no binding | no binding | no binding | no binding | no binding | no binding | no binding | no binding | no binding | – | no binding | no binding | no binding | binding result [26]: binds; binding result [27]: binds; binding result [28]: binds; binding result [29]: binds; binding result [30]: binds; binding result [31]: binds; binding result [32]: binds; binding result [33]: no binding; binding result [34]: binds |
| Biotin-ARKANMKGSYSLVEAQKSKV (also called CD106) [VCAM1 C-terminal PL peptide AA17L, biotinylated] | no binding | no binding | no binding | no binding | no binding | no binding | no binding | no binding | no binding | no binding | no binding | – | – | no binding | no binding | no binding | no binding | no binding | no binding | no binding | binding result [28]: binds; binding result [29]: binds; binding result [35]: binds; binding result [36]: binds; binding result [31]: binds; binding result [33]: no binding; binding result [37]: no binding |
